Results published in PMC11024467, “A novel dual mechanism-of-action bispecific PD-1-IL-2v armed by a “βγ-only” interleukin-2 variant” (Frontiers in Immunology, 2024).

Tests used:
IL-2Rβγ complex [1] = target: T1, IL-2Rβγ complex (UniProt P14784 27-551; P31785 23-369); assay: cell-based or functional assay
IL-2Rβγ complex [2] = target: T1, IL-2Rβγ complex; assay: SPR; Biacore, IL-2 receptor proteins immobilised on a CM5 chip; wild-type IL-2 or variant 012 flowed over at stepwise concentrations for 120 s, then blank solution; 1:1 binding fit (steady state affinity for 001 on IL-2Rα); conditions: both partners purified
IL-2Rαβγ complex = IL-2Rαβγ complex (UniProt P01589 22-272; P14784 27-551; P31785 23-369); assay: as above; conditions: both partners purified
Sequence of IL-2Rαβγ complex (P01589 22-272, chain 1 of 3): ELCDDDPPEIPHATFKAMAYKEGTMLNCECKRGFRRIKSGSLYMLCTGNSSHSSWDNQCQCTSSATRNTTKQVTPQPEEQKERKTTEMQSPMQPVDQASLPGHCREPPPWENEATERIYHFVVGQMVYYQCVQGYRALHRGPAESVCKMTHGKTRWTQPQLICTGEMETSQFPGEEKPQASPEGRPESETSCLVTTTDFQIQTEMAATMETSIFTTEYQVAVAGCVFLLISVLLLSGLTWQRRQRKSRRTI
Sequence of IL-2Rαβγ complex (P14784 27-551, chain 2 of 3): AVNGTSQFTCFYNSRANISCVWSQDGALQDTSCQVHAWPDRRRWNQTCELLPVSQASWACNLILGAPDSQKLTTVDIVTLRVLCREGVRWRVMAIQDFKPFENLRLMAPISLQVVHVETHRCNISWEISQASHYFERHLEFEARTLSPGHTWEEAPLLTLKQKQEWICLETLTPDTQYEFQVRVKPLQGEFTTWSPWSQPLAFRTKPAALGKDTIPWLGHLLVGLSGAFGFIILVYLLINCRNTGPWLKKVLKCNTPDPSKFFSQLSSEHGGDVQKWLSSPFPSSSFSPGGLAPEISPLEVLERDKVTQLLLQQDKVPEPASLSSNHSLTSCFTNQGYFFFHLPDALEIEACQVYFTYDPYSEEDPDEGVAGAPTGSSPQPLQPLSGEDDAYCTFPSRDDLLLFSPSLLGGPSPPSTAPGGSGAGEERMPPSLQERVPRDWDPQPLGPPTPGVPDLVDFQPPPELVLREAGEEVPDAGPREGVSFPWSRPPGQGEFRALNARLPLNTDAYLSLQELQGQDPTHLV
Sequence of IL-2Rαβγ complex (P31785 23-369, chain 3 of 3): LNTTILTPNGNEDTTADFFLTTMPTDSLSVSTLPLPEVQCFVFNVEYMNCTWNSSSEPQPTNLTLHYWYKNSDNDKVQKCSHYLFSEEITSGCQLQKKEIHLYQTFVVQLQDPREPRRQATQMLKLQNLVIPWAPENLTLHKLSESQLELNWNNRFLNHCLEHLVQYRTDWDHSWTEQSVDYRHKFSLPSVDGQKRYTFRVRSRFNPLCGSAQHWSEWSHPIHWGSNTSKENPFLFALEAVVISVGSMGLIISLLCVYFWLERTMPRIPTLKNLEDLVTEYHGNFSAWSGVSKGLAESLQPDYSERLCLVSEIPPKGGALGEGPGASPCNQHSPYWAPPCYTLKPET

T1 sequence (P14784 27-551, chain 1 of 2): as the sequence (P14784 27-551, chain 2 of 3) above
T1 sequence (P31785 23-369, chain 2 of 2): as the sequence (P31785 23-369, chain 3 of 3) above

B1: IL-2 variant 012 (ligand)
chain: PTSSSTKKTQLQLEHLLLDLQMILNGINNYKNPLRPRDLISNINVIVLELKGSETTELKHLQSLEEELKDLEEVLNLAQSKNFHTIVEFLNRWITFSQSIISTLT
notes: also called βγ-only IL-2v
- EC50 of STAT5 activation (pSTAT5) in CD8 T cells of human PBMC (Table S4) (IL-2Rβγ complex [1]): 18.6 nM
- EC50 of STAT5 activation (pSTAT5) in NK cells of human PBMC (Table S4) (IL-2Rβγ complex [1]): 5.11 nM
- Kd (IL-2Rβγ complex [2]): 0.467 nM
- koff (IL-2Rβγ complex [2]): 0.00106 s⁻¹
- Kd (IL-2Rαβγ complex): 0.575 nM
- koff (IL-2Rαβγ complex): 0.000732 s⁻¹
